Source: patent US20230365705A1 (DYNAMICURE BIOTECHNOLOGY, published 2023)
One block for each binder: values may come before it.

Key:
[1] = target: T1, Human CD93 on cells (human CD93 expressing CHO cells; HUVEC, U937 and KG1a cells) (human, UniProt Q9NPY3 22-652); experiment: summary table, column FACS (HUVEC cells); 2 weeks at 40 C
T1 construct: whole, on cells; also called hCD93 expressing CHO cells; hCD93 CHO cells
T1 sequence (looked up): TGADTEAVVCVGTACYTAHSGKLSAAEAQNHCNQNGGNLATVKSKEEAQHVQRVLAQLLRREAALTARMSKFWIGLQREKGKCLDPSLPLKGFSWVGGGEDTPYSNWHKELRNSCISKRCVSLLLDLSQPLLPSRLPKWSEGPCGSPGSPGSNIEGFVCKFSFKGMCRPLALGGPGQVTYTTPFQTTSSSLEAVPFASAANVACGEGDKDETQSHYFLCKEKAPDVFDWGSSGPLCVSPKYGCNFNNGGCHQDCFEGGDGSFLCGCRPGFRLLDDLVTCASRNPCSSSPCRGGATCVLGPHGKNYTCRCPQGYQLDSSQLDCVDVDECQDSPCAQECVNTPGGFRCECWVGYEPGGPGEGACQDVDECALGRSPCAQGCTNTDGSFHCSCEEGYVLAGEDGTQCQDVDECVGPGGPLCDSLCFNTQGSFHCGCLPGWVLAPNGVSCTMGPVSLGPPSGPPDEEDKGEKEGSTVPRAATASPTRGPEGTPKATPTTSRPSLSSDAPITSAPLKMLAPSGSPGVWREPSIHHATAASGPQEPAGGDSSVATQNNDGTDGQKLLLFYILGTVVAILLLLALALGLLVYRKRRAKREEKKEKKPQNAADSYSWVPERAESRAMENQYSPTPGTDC
Experimental: (§1) HUVEC cells were detached by incubation with TrypLE reagents (Thermo Fisher), which preserves the integrity of CD93 on the cell surface. Then the cells were incubated with serial diluted anti-CD93 antibodies for 30 minutes at 4° C. After washing by FACS buffer, the cells were incubated with Alexa Fluor 647 conjugated anti-human IgG (Jackson ImmunoResearch) for 30 minutes in 4° C. After washing by FACS buffer twice, the samples were acquired in NovoCyte Flow Cytometer and analyzed by NovoExpress software.

[2] = target: T1, Human CD93 on cells (human CD93 …); experiment: flow cytometry titration, HUVEC cells; antibody stored 4 weeks at 40 C; unit printed as nMM
Experimental: as §1

[3] = target: T1, Human CD93 on cells (human CD93 …); experiment: flow cytometry blocking assay, CHO-hCD93 cells; blocked ligand hMMRN2 495-674 at 0.1 ug/ml
Experimental: Then the cells were incubated with hMMRN2₄₉₅₋₆₇₄ at 0.1 μg/ml. […] Then the cells were washed with FACS buffer and incubated with APC-conjugated anti-His tag antibody at 1 μg/ml for 30 minutes at 4° C. After washing with FACS buffer twice, the samples were analyzed and data acquired in NovoCyte Flow. Recombinant his tagged […] was produced internally in Expi_HEK following routine procedure.

[4] = target: T1, Human CD93 on cells (human CD93 …); experiment: flow cytometry titration, CHO-hCD93 cells
Experimental: as §1, with “Human CD93 expressing CHO” for “HUVEC”

[5] = target: T1, Human CD93 on cells (human CD93 …); experiment: flow cytometry titration, CHO-hCD93 cells; antibody stored 4 weeks at 40 C
Experimental: as §1, with “Human CD93 expressing CHO” for “HUVEC”

[6] = target: T2, Human CD93 recombinant protein (Sino Biological Inc, Catalog #12589-H08H) (human, UniProt Q9NPY3 22-580); experiment: BLI (Octet QKe), biotinylated human CD93 on streptavidin biosensors
T2 construct: Biotinylated (EZ-LINK NHS-PEG4 biotin) in the BLI assays; also called hCD93; His-tagged human CD93
T2 sequence (looked up): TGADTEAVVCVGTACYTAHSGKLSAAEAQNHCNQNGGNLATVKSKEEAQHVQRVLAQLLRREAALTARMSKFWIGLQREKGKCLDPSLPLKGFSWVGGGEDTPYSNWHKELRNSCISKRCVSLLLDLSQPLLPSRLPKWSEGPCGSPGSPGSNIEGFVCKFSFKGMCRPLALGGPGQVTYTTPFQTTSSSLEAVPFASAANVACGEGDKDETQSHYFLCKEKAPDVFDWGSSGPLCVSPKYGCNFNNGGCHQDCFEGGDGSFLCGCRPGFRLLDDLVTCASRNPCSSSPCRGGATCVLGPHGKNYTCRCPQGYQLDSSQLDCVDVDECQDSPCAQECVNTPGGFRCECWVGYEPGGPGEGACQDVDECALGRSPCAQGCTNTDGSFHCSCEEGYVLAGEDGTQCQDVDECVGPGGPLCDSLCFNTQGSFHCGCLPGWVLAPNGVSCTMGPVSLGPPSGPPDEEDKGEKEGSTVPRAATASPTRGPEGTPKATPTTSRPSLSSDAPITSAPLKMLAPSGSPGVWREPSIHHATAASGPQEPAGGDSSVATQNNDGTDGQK
Experimental: The binding affinity of anti-CD93 antibodies was determined with bio-layer interferometry using Octet QKe (Fortebio). […] Human CD93 recombinant protein (Sino Biological Inc, Catalog #12589-H08H) was biotinylated using EZ-LINK NHS-PEG4 biotin (Thermo Fisher Scientific). Streptavidin biosensors (Fortebio) were used to load biotinylated CD93 protein (300 seconds in 5 μg/ml). Baseline was stabilized for 60 seconds in 1× kinetics buffer (Fortebio) before anti-CD93 antibodies, at a serial dilution, were allowed to associate for 300 seconds with captured protein. Then the sensors were dissociated in 1× kinetics buffer for 600 seconds. […] (FIG. 42).

[7] = target: T1, Human CD93 on cells (human CD93 …); experiment: flow cytometry, CHO-hCD93 cells, APC-A

EC50 [1]: 1.17 nM
EC50 [2]: 1.12 nM
IC50 [3]: 0.133 nM
B1: h7F3 (humanized 7F3, VH3+VL3) (antibody, human IgG1, V domains shown)
VH: QVQLVQSGAEVKKPGASVKVSCKASGYTFTDYEMHWVRQAPGQGLEWMGGIDPETGDTAYNQNFKGRVTMTTDTSTSTAYMELRSLTSDDTAVYYCTNYGNLYYYAMDYWGQGTSVTVSS
VL: EIVLTQSPSSLSASVGDRVTITCRASSSVSSSYLHWYQQKPGKAPKLLIYSTSNLAFGVPSRFSGSGSGTSYTFTISSLQPEDIATYYCQQYSGYPLTFGSGTKLEIK
notes: also called humanized 7F3-hIgG1

EC50 [4]: 0.388 nM
EC50 [5]: 0.312 nM
Kd [6]: 0.416 nM
koff [6]: 0.000104 s⁻¹
kon [6]: 249000 M⁻¹ s⁻¹
B2: h16E4 (humanized 16E4, VH4+VL6) (antibody, V domains shown)
VH: QVQLVQSGAEVKKPGASVKVSCKASGYTFTSYWMHWVRQAPGQGLEWMGEIDPSASYTYYNQKFKGRVTMTRDKSSSTVYMELSSLTSEDSAVYYCARSVYYGNKYFDVWGAGTTVTVSS
VL: DIQMTQSPSTLSASVGDRVTITCKASQSVDYAGDSYMNWYQQKPGKAPKLLIYAASNLESGVPSRFSGSGSGTEFTLTISSLQPDDFATYYCQQTNEDPRTFGGGTKLEIK
notes: Detected with anti-human IgG, so a human Fc

M3 gate, % of cells [7]: 98.7%
B3: 16E4 (hybridoma) (antibody, IgG2a, V domains shown)
VH: QVQLQQPGAELVKPGASVKLSCKASGYTFTSYWMHWVKQRPGQGLEWIGEIDPSASYTYYNQKFKGKATLTVDKSSSTAYMQLSSLTSEDSAVYYCARSVYYGNKYFDVWGAGTTVTVSS
VL: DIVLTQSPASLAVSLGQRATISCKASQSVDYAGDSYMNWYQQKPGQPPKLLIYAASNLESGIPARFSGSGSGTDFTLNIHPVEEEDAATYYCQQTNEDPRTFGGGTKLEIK
notes: also called 16E4 mAb; 16E4 mIgG2a
